Data as given in US20150307603A1 (MODIQUEST B V, published 2015).
Non-standard residues stand in square brackets, D forms with d. No end group written: not given here. Cit = NC(=O)NCCC[C@H](N)C(=O)O

Experiments:
[1] = molecular target: T1, huPAD2-deiminated human recombinant histone 2B (human); test: ELISA, Ab 0.0032 ug/well
T1 construct: also called H2B/p2
Text: (§1) The resulting OD (y-axis) is a measure for antibody binding. H1-recombinant histone 1; H1/p2-huPAD2 recombinant histone 1; H1/p4-huPAD4 recombinant histone 1, and so forth (x-axis).

[2] = molecular target: T2, huPAD4-deiminated human recombinant histone 2B (human); test: ELISA, Ab 0.0032 ug/well
T2 construct: also called H2B/p4
Text: as §1

[3] = molecular target: T3, huPAD2-deiminated human recombinant histone 3 (human); test: ELISA, Ab 0.0032 ug/well
T3 construct: also called H3/p2; histone 3/p2
Text: as §1

[4] = molecular target: T4, human recombinant histone 4 (human, UniProt P62805 2-103); test: ELISA, Ab 0.0032 ug/well
Text: as §1

[5] = molecular target: T5, human recombinant histone 2B (human); test: ELISA, Ab 0.0032 ug/well
T5 construct: Non-deiminated; also called H2B
Text: as §1

[6] = molecular target: T6, huPAD4-deiminated human recombinant histone 3 (human); test: ELISA, Ab 0.0032 ug/well
T6 construct: also called H3/p4
Text: as §1

[7] = molecular target: T7, huPAD4-deiminated human recombinant histone 2A (human); test: ELISA, Ab 0.0032 ug/well
T7 construct: also called H2A/p4; histone 2A/p4
Text: as §1

CFC-1 [8] = molecular target: T8, CFC-1; test: ELISA, Ab 0.0032 ug/well
T8 construct: Positive control for anti-citrulline reactivity; also called cfc1 XG; Cfc1-peptide
Text: as §1

[9] = molecular target: T9, huPAD2-deiminated human recombinant histone 2A (human); test: ELISA, Ab 0.0032 ug/well
T9 construct: also called H2A/p2; histone 2A/p2
Text: as §1

[10] = molecular target: PREDICTED: similar to 60S ribosomal protein L29 (Cell surface heparin-binding protein HIP) [Homo sapiens] (Homo sapiens); test: IP of deiminated HEK293 lysate + MS emPAI; reference RhmAb2.101
Procedure: (§4) Beads were subjected to three washes with 1 ml IPP500, one wash with 1 ml IPP150 (10 mM Tris/HCl pH 8.0, 150 mM NaCl, 0.1% NP40 and 0.1% TWEEN®-20), and subsequently incubated at room temperature with 300 p1 deiminated HEK293 lysate for 2 hours under constant rotation. Beads were washed three times with 1 ml of IPP150, after which a small part has been used for SDS-PAGE electrophoresis to determine if the IP procedure with the HEK293 cells was successful.
(§5) The exponentially modified protein abundance index (emPAI) was calculated for all validated proteins.

[11] = molecular target: ribosomal protein L29 [Homo sapiens] (Homo sapiens); test: as above
Procedure: as §4, §5

[12] = molecular target: T1, huPAD2-deiminated human recombinant …; test: ELISA, Ab 0.00064 ug/well
Text: as §1

[13] = molecular target: T4, human recombinant histone 4; test: ELISA, Ab 0.00064 ug/well
Text: as §1

[14] = molecular target: T5, human recombinant histone 2B; test: ELISA, Ab 0.00064 ug/well
Text: as §1

[15] = molecular target: T10, human recombinant histone 2A (human); test: ELISA, Ab 0.00064 ug/well
T10 construct: Non-deiminated; also called H2A
Text: as §1

[16] = molecular target: T7, huPAD4-deiminated human recombinant …; test: ELISA, Ab 0.00064 ug/well
Text: as §1

CFC-1 [17] = molecular target: T8, CFC-1; test: ELISA, Ab 0.00064 ug/well
Text: as §1

[18] = molecular target: T9, huPAD2-deiminated human recombinant …; test: ELISA, Ab 0.00064 ug/well
Text: as §1

msFibα XG [19] = molecular target: T11, msFibα XG (mouse, X at position 8 = citrulline; biotin-labelled); test: ELISA, Ab 0.08 ug/well
T11 peptide: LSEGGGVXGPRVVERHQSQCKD
Procedure: (§2) Biotin and citrulline-containing peptides derived from fibrinogen and vimentin were immobilized on NEUTRAVIDIN®-coated 96-well ELISA plates (0.3 μg/well). CFC-1 and CFC-0 were coated at the same concentration and served as positive and negative controls, respectively, for specific anti-citrulline reactivity and as coating controls. Non-coated wells were used to test for aspecific binding of the antibodies. […] Detection of bound anti-citrulline antibodies was performed by incubating the wells with rabbit anti-human HRP (1:2000) for 1 hour at RT followed by incubation with TMB substrate. The resulting OD (y-axis) is a measure for antibody binding.
(§3) Biotin-labeled and citrulline-containing fibrinogen and vimentin peptides (Table 5) were also tested for reactivity with the therapeutic antibodies. Peptides were coated on 96-well NEUTRAVIDIN®-ELISA plates.

msFibα XH [20] = molecular target: T12, msFibα XH (mouse, X at position 15 = citrulline; biotin-labelled); test: ELISA, Ab 0.08 ug/well
T12 peptide: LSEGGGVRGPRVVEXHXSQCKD
Procedure: as §2, §3

huFibα XG [21] = molecular target: T13, huFibα XG (human, X at position 8 = citrulline; biotin-labelled); test: ELISA, Ab 0.08 ug/well
T13 peptide: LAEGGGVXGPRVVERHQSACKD
Procedure: as §2, §3

huFibα XH [22] = molecular target: T14, huFibα XH (human, X at position 15 = citrulline; biotin-labelled); test: ELISA, Ab 0.08 ug/well
T14 peptide: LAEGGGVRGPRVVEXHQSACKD
Procedure: as §2, §3

CFC-1 [23] = molecular target: T8, CFC-1; test: ELISA, Ab 0.08 ug/well
Procedure: as §2, §3

msFibβ XG [24] = molecular target: T15, msFibβ XG (mouse, also: biotin-labelled); test: ELISA, Ab 0.08 ug/well
T15 construct: also called mouse fibrinogen β peptide
T15 peptide: EPTDSLDA[Cit]GHRPVDRR
Procedure: as §2, §3

msVim XS/XL [25] = molecular target: T16, msVim XS/XL (mouse, also: biotin-labelled); test: ELISA, Ab 0.08 ug/well
T16 construct: also called mouse vimentin peptide
T16 peptide: YVT[Cit]SSAV[Cit]L[Cit]SSVP
Procedure: as §2, §3

msFibα XG [26] = molecular target: T11, msFibα XG; test: ELISA, Ab 2 ug/well
Procedure: as §2, §3

msFibα XH [27] = molecular target: T12, msFibα XH; test: ELISA, Ab 2 ug/well
Procedure: as §2, §3

huFibα XG [28] = molecular target: T13, huFibα XG; test: ELISA, Ab 2 ug/well
Procedure: as §2, §3

huFibα XH [29] = molecular target: T14, huFibα XH; test: ELISA, Ab 2 ug/well
Procedure: as §2, §3

CFC-1 [30] = molecular target: T8, CFC-1; test: ELISA, Ab 2 ug/well
Procedure: as §2, §3

msFibβ XG [31] = molecular target: T15, msFibβ XG; test: ELISA, Ab 2 ug/well
Procedure: as §2, §3

msVim XS/XL [32] = molecular target: T16, msVim XS/XL; test: ELISA, Ab 2 ug/well
Procedure: as §2, §3

B1: RhmAb2.102 (antibody, human IgG1, lambda)
heavy: not shown
light: QSVLTQPPSMSAAPGQKVTISCSGSSSNIGNNYVSWYQQVPGTAPKLLIYDDNKRPSGIPGRFSGSKSATSATLGITGLQAGDEADYYCGSWDDNLSVVLFGGGTKLTVLGQPKAAPSVTLFPPSSEELQANKATLVCLISDFYPGAVTVAWKADSSPVKAGVETTTPSKQSNNKYAASSYLSLTPEQWKSHRSYSCQVTHEGSTVEKTVAPTECS
notes: Human IgG1 lambda; also called Rhm2.102
OD [1]: 0.052 OD450 | OD [2]: 0.052 OD450 | OD [3]: 0.08 OD450 | OD [4]: 0.06 OD450 | OD [5]: 0.05 OD450 | OD [6]: 0.065 OD450 | OD [7]: 0.135 OD450 | OD (CFC-1 [8]): 0.178 OD450 | OD [9]: 0.161 OD450 | Ratio 102/101 (emPAI) [10]: 1 ratio | Ratio 102/101 (emPAI) [11]: 0.5 ratio | OD [12]: 0.052 OD450 | OD [13]: 0.06 OD450 | OD [14]: 0.052 OD450 | OD [15]: 0.057 OD450 | OD [16]: 0.075 OD450 | OD (CFC-1 [17]): 0.077 OD450 | OD [18]: 0.077 OD450 | OD (msFibα XG [19]): 0.237 OD450 | OD (msFibα XH [20]): 0.076 OD450 | OD (huFibα XG [21]): 0.186 OD450 | OD (huFibα XH [22]): 0.08 OD450 | OD (CFC-1 [23]): 3.03 OD450 | OD (msFibβ XG [24]): 0.515 OD450 | OD (msVim XS/XL [25]): 0.515 OD450 | OD (msFibα XG [26]): 1.9 OD450 | OD (msFibα XH [27]): 0.091 OD450 | OD (huFibα XG [28]): 1.51 OD450 | OD (huFibα XH [29]): 0.116 OD450 | OD (CFC-1 [30]): 3.97 OD450 | OD (msFibβ XG [31]): 3.15 OD450 | OD (msVim XS/XL [32]): 2.77 OD450
